Data set [1] addresses T1, MBP-SlMYC2 (Solanum lycopersicum, UniProt A0A3Q7HRZ6 1-689). Kind of data set: EMSA; Chemiluminescent EMSA kit (Beyotime); buffer, salt, pH and temperature not stated. The following applies: protein: recombinant; tags: N-terminal MBP; chain copies: 2; label: biotin. In general terms: In EMSA bound probe runs differently from free probe, usually more slowly.
For data set [2], the target named is T1, MBP-SlMYC2. Kind of data set: competition; unlabeled mutant competitor vs SlATG13a probe; Chemiluminescent EMSA kit (Beyotime); buffer, salt, pH and temperature not stated. The note with it: protein: recombinant; tags: N-terminal MBP; chain copies: 2.
Data set [3] has as its target T1, MBP-SlMYC2. Kind of data set: competition; unlabeled mutant competitor vs SlATG18h probe; Chemiluminescent EMSA kit (Beyotime); buffer, salt, pH and temperature not stated. The note with it: protein: recombinant; tags: N-terminal MBP; chain copies: 2.
Data set [4] has as its target T1, MBP-SlMYC2. Kind of data set: competition; unlabeled mutant competitor vs SlATG13b probe; Chemiluminescent EMSA kit (Beyotime); buffer, salt, pH and temperature not stated. The note with it: protein: recombinant; tags: N-terminal MBP; chain copies: 2.
For data set [5], the target named is T1, MBP-SlMYC2. The data set can be described thus: competition; unlabeled mutant competitor vs SlATG18a probe; Chemiluminescent EMSA kit (Beyotime); buffer, salt, pH and temperature not stated. The note with it: protein: recombinant; tags: N-terminal MBP; chain copies: 2.

T1 sequence (A0A3Q7HRZ6 whole entry): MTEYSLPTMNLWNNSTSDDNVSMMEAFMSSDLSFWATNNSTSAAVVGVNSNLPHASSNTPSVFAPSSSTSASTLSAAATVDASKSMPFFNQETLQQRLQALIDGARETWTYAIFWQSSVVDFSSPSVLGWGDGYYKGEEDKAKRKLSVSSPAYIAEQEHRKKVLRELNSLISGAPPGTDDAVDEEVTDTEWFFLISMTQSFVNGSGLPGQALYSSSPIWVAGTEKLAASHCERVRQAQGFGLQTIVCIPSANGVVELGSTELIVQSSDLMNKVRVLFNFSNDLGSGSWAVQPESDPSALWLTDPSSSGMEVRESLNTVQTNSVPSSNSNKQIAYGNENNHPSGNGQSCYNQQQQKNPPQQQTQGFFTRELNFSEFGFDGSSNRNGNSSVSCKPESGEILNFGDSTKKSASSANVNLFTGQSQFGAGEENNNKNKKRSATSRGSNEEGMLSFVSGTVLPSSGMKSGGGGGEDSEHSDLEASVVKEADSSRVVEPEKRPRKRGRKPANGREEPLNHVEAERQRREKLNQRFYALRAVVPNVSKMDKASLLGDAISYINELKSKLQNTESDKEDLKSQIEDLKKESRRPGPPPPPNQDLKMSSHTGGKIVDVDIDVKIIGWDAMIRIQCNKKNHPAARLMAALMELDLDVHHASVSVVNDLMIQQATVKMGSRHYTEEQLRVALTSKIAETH

B1: SlATG13b promoter probe (dsDNA)
DNA 1: TTTCTTTGTTTCACACGTTCTTTTTACTTC
DNA 2: GAAGTAAAAAGAACGTGTGAAACAAAGAAA
Regarding B1, the binding result with MBP-SlMYC2 [1] is recorded as “binds”.

B2: SlATG13a mutant probe (G/E-box to TTTTTTTT) (dsDNA)
DNA 1: GAGATTTTTTTTTATGTTTTTTTTTAAATT
DNA 2: AATTTAAAAAAAAACATAAAAAAAAATCTC
As to B2, the binding result with MBP-SlMYC2 [2] was “no binding”.

B3: SlATG18h mutant probe (G/E-box to TTTTTTTT) (dsDNA)
DNA 1: ATTCCATATATTTTTTTTCTCCGTTTCATC
DNA 2: GATGAAACGGAGAAAAAAAATATATGGAAT
As for B3, the binding result with MBP-SlMYC2 [3] is given as “no binding”.

B4: SlATG13b mutant probe (G/E-box to TTTTTTTT) (dsDNA)
DNA 1: TTTCTTTGTTTCTTTTTTTTTTTTTACTTC
DNA 2: GAAGTAAAAAAAAAAAAAGAAACAAAGAAA
As for B4, the binding result with MBP-SlMYC2 [4] is listed as “no binding”.

B5: SlATG18a mutant probe (G/E-box to TTTTTTTT) (dsDNA)
DNA 1: GGATTGGATCTTTTTTTTTCATGTAGGATA
DNA 2: TATCCTACATGAAAAAAAAAGATCCAATCC
In the case of B5, the binding result with MBP-SlMYC2 [5] is on record as “no binding”.

B6: SlATG13a promoter probe (dsDNA)
DNA 1: GAGAACACTTGCTATGTCACGTGCTAAATT
DNA 2: AATTTAGCACGTGACATAGCAAGTGTTCTC
On to B6, for which, in the data set with MBP-SlMYC2 [1], the binding result is on record as “binds”.

B7: SlATG18a promoter probe (dsDNA)
DNA 1: GGATTGGATCTACACGTGGCATGTAGGATA
DNA 2: TATCCTACATGCCACGTGTAGATCCAATCC
As to B7, the binding result with MBP-SlMYC2 [1] is recorded as “binds”.

B8: SlATG18h promoter probe (dsDNA)
DNA 1: ATTCCATATAACACATGTCTCCGTTTCATC
DNA 2: GATGAAACGGAGACATGTGTTATATGGAAT
As for B8, in the data set with MBP-SlMYC2 [1], the binding result is given as “binds”.

The values are drawn from paper PMC10031729, “Interaction of methionine sulfoxide reductase B5 with SlMYC2 stimulates the transcription of MeJA-mediated autophagy-related genes in tomato fruit”.
